Reference: IntAct's records for PubMed 11854298

B1: Peroxisome proliferator-activated receptor gamma coactivator 1-beta (Homo sapiens), Q86YN6 (parent)
chain: MAGNDCGALLDEELSSFFLNYLADTQGGGSGEEQLYADFPELDLSQLDASDFDSATCFGELQWCPENSETEPNQYSPDDSELFQIDSENEALLAELTKTLDDIPEDDVGLAAFPALDGGDALSCTSASPAPSSAPPSPAPEKPSAPAPEVDELSLLQKLLLATSYPTSSSDTQKEGTAWRQAGLRSKSQRPCVKADSTQDKKAPMMQSQSRSCTELHKHLTSAQCCLQDRGLQPPCLQSPRLPAKEDKEPGEDCPSPQPAPASPRDSLALGRADPGAPVSQEDMQAMVQLIRYMHTYCLPQRKLPPQTPEPLPKACSNPSQQVRSRPWSRHHSKASWAEFSILRELLAQDVLCDVSKPYRLATPVYASLTPRSRPRPPKDSQASPGRPSSVEEVRIAASPKSTGPRPSLRPLRLEVKREVRRPARLQQQEEEDEEEEEEEEEEEKEEEEEWGRKRPGRGLPWTKLGRKLESSVCPVRRSRRLNPELGPWLTFADEPLVPSEPQGALPSLCLAPKAYDVERELGSPTDEDSGQDQQLLRGPQIPALESPCESGCGDMDEDPSCPQLPPRDSPRCLMLALSQSDPTFGKKSFEQTLTVELCGTAGLTPPTTPPYKPTEEDPFKPDIKHSLGKEIALSLPSPEGLSLKATPGAAHKLPKKHPERSELLSHLRHATAQPASQAGQKRPFSCSFGDHDYCQVLRPEGVLQRKVLRSWEPSGVHLEDWPQQGAPWAEAQAPGREEDRSCDAGAPPKDSTLLRDHEIRASLTKHFGLLETALEEEDLASCKSPEYDTVFEDSSSSSGESSFLPEEEEEEGEEEEEDDEEEDSGVSPTCSDHCPYQSPPSKANRQLCSRSRSSSGSSPCHSWSPATRRNFRCESRGPCSDRTPSIRHARKRREKAIGEGRVVYIQNLSSDMSSRELKRRFEVFGEIEECEVLTRNRRGEKYGFITYRCSEHAALSLTKGAALRKRNEPSFQLSYGGLRHFCWPRYTDYDSNSEEALPASGKSKYEAMDFDSLLKEAQQSLH
B2: Estrogen receptor (Homo sapiens), P03372 (parent)
chain: MTMTLHTKASGMALLHQIQGNELEPLNRPQLKIPLERPLGEVYLDSSKPAVYNYPEGAAYEFNAAAAANAQVYGQTGLPYGPGSEAAAFGSNGLGGFPPLNSVSPSPLMLLHPPPQLSPFLQPHGQQVPYYLENEPSGYTVREAGPPAFYRPNSDNRRQGGRERLASTNDKGSMAMESAKETRYCAVCNDYASGYHYGVWSCEGCKAFFKRSIQGHNDYMCPATNQCTIDKNRRKSCQACRLRKCYEVGMMKGGIRKDRRGGRMLKHKRQRDDGEGRGEVGSAGDMRAANLWPSPLMIKRSKKNSLALSLTADQMVSALLDAEPPILYSEYDPTRPFSEASMMGLLTNLADRELVHMINWAKRVPGFVDLTLHDQVHLLECAWLEILMIGLVWRSMEHPGKLLFAPNLLLDRNQGKCVEGMVEIFDMLLATSSRFRMMNLQGEEFVCLKSIILLNSGVYTFLSSTLKSLEEKDHIHRVLDKITDTLIHLMAKAGLTLQQQHQRLAQLLLILSHIRHMSNKGMEHLYSMKCKNVVPLYDLLLEMLDAHRLHAPTSRGGASVEETDQSHLATAGSTSSHSLQKYYITGEAEGFPATV
partner: B1 chain

Variants of: B1
Details: with esr1_human ESR1, P03372

| Variant | effect of a mutation on the interaction |
| --- | --- |
| L155A;L156A;L159A;L160A;L343A;L346A;L347A | disrupting interaction strength |
| L155A;L156A;L159A;L160A | decreasing interaction strength |
| L343A;L346A;L347A | decreasing interaction strength |

Variants of: B2
Details: with prgc2_human PPARGC1B

| Variant | effect of a mutation on the interaction |
| --- | --- |
| L539A;L540A | disrupting interaction strength |
